Data as given in patent publication US20230121197A1, “ANTIBODIES SPECIFICALLY BINDING THE CARBOXYMETHYLATED CATALYTIC SUBUNIT OF PROTEIN PHOSPHATASE 2A” (Medizinische Universität Wien, priority 2020, published 2023).

B1: monovalent scFv 7C10-C5: recombinant monovalent single chain variable fragment of antibody 7C10-C5 (SEQ ID NO:42) (protein)
scFv: MDMRVPAQLLGLLLLWLSGARCDVLMTQTPLSLPVSLGDQASISCRSSQSIVHSNGNTYLEWYLQKPGQSPKLLIYKVSNRFSGVPDRFSGSGSGTDFTLKINRVEAEDLGVYYCFQGSHVPWTFGGGTKLEIKSSGGGGSGGGGGGSSRSSLDVQLQESGPGLVKPSQSLSLTCSVTGYSITSGYYWNWIRQFPGNKLEWMGYISYDGSNNYNPSLKNRISITRDTSKNQFFLKLNSVTTEDTATYYCAGRFAYWGQGTLVTVSAAKTTPPSVTSGQAGQHHHHHHGAYPYDVPDYAS
modifications: recombinant monovalent scFv antibody
B2: bivalent scFv 7C10-C5: recombinant bivalent single chain variable fragment of antibody 7C10-C5 (SEQ ID NO:44) (protein)
scFv: MDMRVPAQLLGLLLLWLSGARCDVLMTQTPLSLPVSLGDQASISCRSSQSIVHSNGNTYLEWYLQKPGQSPKLLIYKVSNRFSGVPDRFSGSGSGTDFTLKINRVEAEDLGVYYCFQGSHVPWTFGGGTKLEIKSSGGGGSGGGGGGSSRSSLDVQLQESGPGLVKPSQSLSLTCSVTGYSITSGYYWNWIRQFPGNKLEWMGYISYDGSNNYNPSLKNRISITRDTSKNQFFLKLNSVTTEDTATYYCAGRFAYWGQGTLVTVSAAKTTPPSVGSGSGSGSGSGSGSGSGSGSGSGSGSGSGSDVLMTQTPLSLPVSLGDQASISCRSSQSIVHSNGNTYLEWYLQKPGQSPKLLIYKVSNRFSGVPDRFSGSGSGTDFTLKINRVEAEDLGVYYCFQGSHVPWTFGGGTKLEIKSSGGGGSGGGGGGSSRSSLDVQLQESGPGLVKPSQSLSLTCSVTGYSITSGYYWNWIRQFPGNKLEWMGYISYDGSNNYNPSLKNRISITRDTSKNQFFLKLNSVTTEDTATYYCAGRFAYWGQGTLVTVSAAKTTPPSVTSGQAGQHHHHHHGAYPYDVPDYAS
modifications: recombinant bivalent scFv antibody

Experiments:
[1] = biological target: PP2Ac C-terminal peptide L309, ac-…-OH (unmodified) (human); assay: ELISA, peptide coated at 2 µg/ml, antibody 1 µg/ml
[2] = biological target: PP2Ac C-terminal peptide meL309, ac-…-CH3 (α-carboxymethylated) (human); assay: ELISA, peptide coated at 2 µg/ml, antibody 1 µg/ml, values normalized to L309, N=6
[3] = biological target: PP2Ac C-terminal peptide pT304-meL309, ac-HVTRRpTPDYFL-CH3 (human); assay: as above
[4] = biological target: PP2Ac C-terminal peptide pT304-L309, ac-HVTRRpTPDYFL-OH (human); assay: as above
[5] = biological target: PP2Ac C-terminal peptide pY307-meL309, ac-HVTRRTPDpYFL-CH3 (human); assay: as above
[6] = biological target: T1, C-terminal PP2Ac peptides L309, Y307F, pY307, meL309 (Homo sapiens, UniProt P67775); assay: ELISA with CGEPHVTRRTPDYFL peptides free or linked to BSA (scFv and recombinant 7C10-C5); format: binding; conditions: for recognition of meL309 versus non-carboxymethylated peptides: peptides free or linked to BSA
T1 construct: coated with C-terminal PP2Ac peptides either free or linked to BSA; BSA (carrier)
Protocol: Nunc Medisorp 96-well ELISA flat-bottom plates were coated with C-terminal PP2Ac peptides either free or linked to BSA. Specifically, the peptides were: unmodified L309 (CGEPHVTRRTPDYFL) (SEQ ID NO:49), Y307F (CGEPHVTRRTPDFFL) (SEQ ID NO:50), pY307 (CGEPHVTRRTPDpYFL) (SEQ ID NO:51) or carboxymethylated meL309 (CGEPHVTRRTPDYFL-CH3) (SEQ ID NO:49), on the ELISA plate at 8 μg/ml in TBS (free) or 1 μg/ml in TBS (linked to BSA) at 4° C. overnight. After washing twice with TBS, the wells were incubated with 2% BSA in TBS for 1 h at RT. After washing once with TBS, the wells were incubated with single clone hybridoma cell culture supernatant, clone 7C10-C5 1:50 (7C10 X63), recombinant single chain variable fragment of antibody 7C10-C5, undiluted (7C10 scFvs), or recombinant bivalent single chain variable fragment of antibody 7C10-C5, undiluted (7C10 bi-scFvs). After washing 3× with TBS, wells incubated with recombinant antibodies were incubated with monoclonal antibody 16B12, 1:10000 (recognizing the hemagglutinin tag on the recombinant antibody) in 1% BSA TBS 1 h at room temperature. After washing 3× in TBS, incubation with anti-mouse-HRP coupled secondary antibody for 1 h at RT was performed. Bound antibodies were detected by colorimetric reaction with 3,3′,5,5′-Tetramethylbenzidine as substrate, and absorbance was measured at 450 nm. Values were normalized to meL309 which was arbitrarily set to 1. Average and standard deviation of N=3 experiments are shown.
Nunc Medisorp 96-well ELISA flat-bottom plates were coated with peptides either free or linked to BSA, L309 (CGEPHVTRRTPDYFL) (SEQ ID NO:49) or meL309 (CGEPHVTRRTPDYFL-CH3) (SEQ ID NO:49), on the ELISA plate at 0.5 μg/ml in TBS (free) or […] in TBS (linked to BSA) at 4° C. over night. After washing twice with TBS, the wells were incubated with 2% BSA in TBS for 1 h at RT. After washing once with TBS, the wells were incubated with single clone hybridoma cell culture supernatant, clone 7C10-C5 1:50 (7C10 X63), or recombinant antibody 7C10-C5 undiluted (rec 7C10). After washing 3× with TBS, incubation with anti-mouse-HRP coupled secondary antibody for 1 h at RT was performed. Bound antibodies were detected by colorimetric reaction with 3,3′,5,5′-Tetramethylbenzidine as substrate, and absorbance was measured at 450 nm. Values were normalized to meL309 incubated with 7C10 X63, which was arbitrarily set to 1. Average and standard deviation of N=3 experiments are shown (FIG. 30).

[7] = biological target: PP2Ac peptides L309, Y307F, pY307, meL309 crosslinked to BSA (Homo sapiens, UniProt P67775); assay: Western blot of BSA crosslinked PP2Ac peptides (scFv 7C10-C5); format: binding; conditions: 100 ng BSA crosslinked peptides
Protocol: 100 ng of BSA crosslinked with peptides (L309: CGEPHVTRRTPDYFL (SEQ ID NO:49), Y307F: CGEPHVTRRTPDFFL (SEQ ID NO.50), pY307: CGEPHVTRRTPDpYFL (SEQ ID NO:51) or meL309: CGEPHVTRRTPDYFL-CH3) (SEQ ID NO:49) was separated by 10% SDS-PAGE and transferred to nitrocellulose membrane (0.2 μm, GE Healthcare). Of note, the Y307F peptide cannot be phosphorylated at position 307 due to the presence of a phenylalanine. The membranes were blocked in 3% non-fatty dry milk (NFDM) in TBS-Tween for 1 h at RT and incubated with single clone hybridoma cell culture supernatant, clone 7C10-C5 diluted 1:100 in 0.5% NFDM in TBS-T (7C10 X63), recombinant single chain variable fragment of antibody 7C10-C5, undiluted (7C10 scFvs), recombinant bivalent single chain variable fragment 7C10-C5, undiluted (7C10 bi-scFvs) or single clone hybridoma cell culture supernatant, clone 1D7 (binding to non-carboxymethylated PP2Ac) 1:100 in 0.5% NFDM in TBS-T o/n at 4° C. After washing 3×5 min in TBS-T, blots incubated with recombinant antibodies were incubated with mouse anti-HA monoclonal antibody 16B12 (recognizing the hemagglutinin (HA) tag on the recombinant antibody), 1:10000 in 0.5% NFDM in TBS-T 2 h at room temperature. After washing 3×5 min in TBS-T, incubation with anti-mouse-HRP coupled secondary antibody for 1 h at RT and 3×10 min washes in TBS-T was performed. […] Signals were detected by exposure of X-ray films. […]

Row | Molecule | fold higher ELISA signal intensity than with the α-carboxymethylated counterpart (meL309) [1] [fold] | fold-change of ELISA signal, L309 over meL309 [2] [fold] | fold-change of ELISA signal, pT304-L309 over pT304-meL309 [3] [fold] | fold-change of ELISA signal, L309 over pT304-L309 [4] [fold] | fold-change of ELISA signal, pY307-L309 over pY307-meL309 [5] [fold] | recognition of meL309 versus non-carboxymethylated peptides [6] | recognition of meL309 versus non-carboxymethylated peptides [7] | binding to meL309 peptide, bivalent versus monovalent scFv [6]
1 | mouse monoclonal antibody 4B7 (SCBT, sc-13601, lot 0716) | 8 | 8.27 | 7.39 | 1.75 | 8.27 |  |  | 
2 | B1 |  |  |  |  |  | specifically recognized the carboxymethylated meL309 peptide, but none of the non-carboxymethylated peptides | specifically recognized the carboxymethylated meL309 peptide, but none of the non-carboxymethylated peptides | 
3 | B2 |  |  |  |  |  | specifically recognized the carboxymethylated meL309 peptide, but none of the non-carboxymethylated peptides | specifically recognized the carboxymethylated meL309 peptide, but none of the non-carboxymethylated peptides | bound stronger to the meL309 peptide than the monovalent scFv
